From the DeepSol protein solubility set

Assay: soluble on expression in E. coli; label from the status in PepcDB or PDB records

Sequence	soluble on expression in E. coli
MIERYSRPEMSAIWTDENRFQAWLEVEILACEAWAELGVIPKEDVKVMRENASFDINRILEIEKDTRHDVVAFTRAVSESLGEERKWVHYGLTSTDVVDTALSYLLKQANDILLKDLERFVDIIKEKAKEHKYTVMMGRTHGVHAEPTTFGLKLALWHEEMKRNLERFKQAKAGIEVGKISGAVGTYANIDPFVEQYVCEKLGLKAAPISTQTLQRDRHADYMATLALIATSIEKFAVEIRGLQKSETREVEEFFAKGQKGSSAMPHKRNPIGSENMTGMARVIRGYMMTAYENVPLWHERDISHSSAERIILPDATIALNYMLNRFSNIVKNLTVFPENMKRNMDRTLGLIYSQRVLLALIDTGLTREEAYDTVQPKAMEAWEKQVPFRELVEAEEKITSRLSPEKIADCFDYNYHLKNVDLIFERLGLA	soluble
MIFLNRERKGETNDHFDVNRVKFDDLGIPQDTGGLNRIRFKGENLGIMPTQLGHITPWLYRHFEYAYHVALQFNQHQKFQKLQKLRKLQKELPIAERAGEIVELLKTNQVLIVAGDTGCGKSTQVPQYLLKAGFTGVACTQPRRIACTALARRVAYETLNQYGSEVAFQIRFETTKSQKTKLLFLTEGLLLRQMEKDSLLEKYNVIILDEVHERHLTSDLLIGLLRDLCTKRDDLKLILMSATINLDLFKGYFEGAPVVQVPGRLFPIDVRWHPIKQFIDQSDKKTHKIDPEPYLKILELIDKQFPSTQRGDALIFLNGVAEISMVAEHLKNYAELTNGWIILMLHSTLSVEEQDKVFDQAPVGIRKCILSTNVAETSVTIDGIRFVIDSGKVNLIKHEPGTGTQKLTEFWVSKASANQRKGRAGRTGPGICYRLYSQEQFEKMDDFTVSEINRVSLQEMALKMISLNLGLDPRTFPFIEKPSEDVLNEGLEVLKFQRVLRSDRGDILTLTALGNMVSKLPVEVPIAKMLVYGCVVDELEVMLTVAAGLSVQSPFTNRSYRELEIVERRASLTSPLGDPFTLISIFREWVLQKAFEGTARRWTMENGIDEHRLYEISKLRAQYRQILEDAGLVEKASAAETGEDDSRQRRIDQGEKRKLFDLKKSQRNNDRRQKVLNANKHFDKILEDKEEEDLEAEKDPLKADVKTVEFLLSHKQRDVENIRKTHKISRKTAEVVRVIIAAGLYPNFSILDPVNKYGYGQEMFTHTRLKPFTQIHPNSSIAQYHPETIDPRQGSDGFSRLHQIPFYGLLLETTKPYICNVMPVPAVYTLLVAQKIVIEDDWSQLSIDDFLELRFRSSTDCRSVLLDAKEIRYELTKGLAAKLVGEAGFSGRRRLAKYIDLLNQSIVEKGIEVAVRRNVHPPKVLTGIGIHSPDGGIDKEEDVDDLVQRFERDQEPVHSAREEELEDQKVLDELRADVMCPPTRDMIEEAEKLKELKKKEIPKESYYEKLLKRQKAKEDDEKTEKKPKLEPLDTMEE	soluble
MIFRFGFVSNAMSLWDASPAKTLTFARYSKLSKTERKEALLTVTKANLRNTMRTLHYIIGHGIPLYRFSSSIVPLATHPDVMWDFVTPFQKEFREIGELVKTHQLRTSFHPNQFTLFTSPKESVTKNAVTDMAYHYRMLEAMGIADRSVINIHIGGAYGNKDTATAQFHQNIKQLPQEIKERMTLENDDKTYTTEETLQVCEQEDVPFVFDFHHFYANPDDHADLNVALPRMIKTWERIGLQPKVHLSSPKSEQAIRSHADYVDANFLLPLLERFRQWGTNIDFMIEAKQKDKALLRLMDELSSIRGVKRIGGGALQWKS	not soluble
MIFTSGANKLNDNRNVRTKISSNRQSIKTAPTKAAEIPEYLQLYQTPPGDDISLTEFDDIAMERLKLLKSFENLKDSVSLYNDEFKDKFRKLCDGTKLIVFPDQKPPHQEEVYELWRRDNIGHFILRLAFCRTPENQKWLTQIEGDFLRFRLRQEREQVLDSALANVNFTIEKLGYTEKQAMIEDLEAACQFNLFEAPNKTFYKVDFIDAIELIRRGSVHLKKGFAYFPFDDLVTILVTKMKNNMMAAMARSFKHLAILEEEGRLLPRLSLLSNNAYSGKDYNGEQPDGSIIVTRHMIDKLSRRSFAPCMKQMHNHLRVNHHLKYGARRQYGLFLKGIGLSLDEAIAMMRDEFTKKITSDKFDKEYGYNIRYMYGKEGRRVAQTAMSCATIILRNPPSAVDCHGCPFRHSEKQVLKQKLGSDAILKKEQIERIAELAELNQYDKACTRYFEFMHNLEEGGLGQLITHPNQFYEESQKIVAERIAAKQESQEAPAPKIEKMDTE	not soluble
MIGAILAGGYGKRLKPITDSIPKALVEIKDNYTIMDRQLFDFSIMGIEAVYILSGYLGNKIEERYGSRYRDMNIYYLREEKPLGTLYSLRNLIDEVKDDDIVLRNGDTVTDVNFLNFLKKAQDQKYYITMYVTRMKSPFGIVETFGDQIVQFREKPELNHYINAGLYYIKSDAFPYFFEKYIDRDLETTVFPRMAREGLIGSYTEEAMWIGIDSEKDLERIRADYRNREDYPWGYLKVLYDDDRSRLLEYAIKAGSDTEIDCGDGCILRIQSGLGTFGDSSDEKFRNGDVRSISGKVRVNAFENTRLELIISKKLEHHHHHH	soluble
MIGIVAAFEKVKIPEMGKSFGTGWLPPLPSLKDYTEESAQIPEMAEKLGIPTSRKETKTLELPVSIDFRNWCSPIEDQMDLGSCTAHAGVGVVEYFERRAFGKHIDGSRFFVYKTTRNLMGVKGDTGAWLRNTMGALALCGVPPEKYFPYTSRKTPGPDGEPTFDDEPSSFVYSLADNFEALNYFCHDPQGMNLPPEDVILSVKKYLAAGIPSMFGFYGFPSFKDTDVKGGIPFPGPDERSIWGHAVVAVGYDDNMKIRNTLSNKETTGAFLIRNSWGTAWGDKGYGWLPYEYALNKFALDFWSLISMKWVETGNFGLELESSRSRARETLSRDMPLPHALEHHHHHH	soluble
MIGRNRYAMLTVDTEALPKRAVQDHIKRLMWGEHDGGCAGIREMCAIGNECGVKQVFFVDMCGAYACLDQTLDVVRWLDQDGQDVQLHAHPEYLPEQFWKEHGFKYRPRFLNQYGIEKATFTIKYFGKLISDLTGKPLRAFRAGSFRWNADTLRALQEAGVSLSFNNSMNARLKGQCTYSEPTNHSYLWSNGVIEVPVTERKFFPLFGKEWWGRLQFPVGDWLGSPPWRVLRPYTVGADPSFLVVLLHSWSLLYWDKDGYAVYRDDKRIEDYRKLVRRLARDYDIITTADFLDLYACGKIKTTHTADLSLAEFKAVKKLEHHHHHH	not soluble
MIHIDKNVRTSGAYVMYKNSFVFQVGPTSKGDTLGVVRLGGHKEADETAVETAKREVEEEASIDITILNSPTTYYKEYWNAQSKKLKVENKVNPILIIDSPDESLSIMYVAYSKMQPKPSSETKGLLLLSLNDIELICTGKITLNDYINQGGVSILKEKMDKELILQPFPQLMFLSELLKEDPVLLQQFLNLEHHHHHH	soluble
MIHSMTAFSRIQKQFDVGDFCWEIRSVNHRYLDVSFRLPESFRFLEAELRTLLRDKIHRGKLECHLKYKDTSCDNRSMLINIGTINALLDLSSKLSASHHLANDMTVSQVLSWPGVVEANLLDMEELSQIALELFQKSIDKLCEVRAGEGRSLKAYVEDRLQALRQEVMKSKSIVVSMSAKTKDKLLTRLHELQMDVPEARVEQEIALLLAKLDVSEELDRLETHIAEVSRTLNAEKVTGRRLDFLMQELNREANTLSSKSDSAELTLCAVEMKVLIEQMREQIQNFE	not soluble
MIHYRMDQPDRVRCSVCGGIADEVDETYPEEGDFILVIYRCRDCGHLEKRQYGKPVKIID	not soluble
MIINLVKQLGTTRGYITLWTGIDSAIAALAVQGIASHRTQQYIDEYYPNIGGPLLNQDKEEDELTDAESFRRVIRNGFRDSVIRVVAVTAARPFAVCFARQVAQVIGNETKYTTCAQALAVIGKQEGPGGLFSGLAPQIVGELLVIWGVHLITHGIQRAILRIEFGDTKNKDETKAKAAKDVHKFIHTAVPFLVNSFGYPYSVVSTVMAVAGSGLAVSFLPYSPSFNNWHGAWDYLRPIGLKRGNRLFLREQVGAVTVGVDQQLYASNSYFA	not soluble
MIIQNEFNLYPSNMLPERFCYPEKYVRISNDTSLIPYIQPHNFHWWFENYGTEGAEVAYIFRNSILPDLNLIPFASNGEWEAYFDGNDVTGNSRVIVINLDNIENHEFFNSFEDWLELAIKDTW	not soluble
MIIRPERQGDEEAIARVTEDAFRNVEHRSGTEQLIVARLRDAGALTVSLVAEDSEGIIGHVGFSPVTLSSGETGWFCLAPLSVTPERQGEGVGSRLARDGLAVLERLSAAGCVVVGDPAYYGRFGFRPVAGLSAEGIPDEYFTVLRLHGGTPSGIVGFHPGFDGDNA	not soluble
MIIYFIGTGGSEGIPVHLCDCNTCNEARKFRFAQRRPSTLAVIGENGEVILFDVGTDIREFLNVPLDAIFLTHWHHDHIYGLYKLRWIARETNLYAPEGHADALILQDPKNLRPKIIKAGEKIRIGDIKVTSVKLNHQIETLGYIIEEDGKRVAILYDTKGLPPETREYLEDISPLRVAIVDATYPPGFVDPYHNNVNEAVEMSIDIAERIVLSHISHKNLPFLKLVNYTRKMWGGKVLVAYDGMVFYV	soluble
MIKIAITKGRIQKQVTKLLENADYDVEPILNLGRELQIKTKDDLQIIFGKPNDVITFLEHGIVDIGFVGKDTLDENDFDDYYELLYLKIGQCIFALASYPDFSNKNFQRHKRIASKYPRVTKKYFAQKQEDIEIIKLEGSVELGPVVGLADAIVDIVETGNTLSANGLEVIEKISDISTRMIVNKSSFKFKKDKIIEMVERLEDAQTN	soluble
MIKIGAHMPISKGFDRVPQDTVNIGGNSFQIFPHNARSWSAKLPSDEAATKFKREMKKHGIDWENAFCHSGYLINLASPKDDIWQKSVELLKKEVEICRKLGIRYLNIHPGSHLGTGEEEGIDRIVRGLNEVLNNTEGVVILLENVSQKGGNIGYKLEQLKKIRDLVDQRDRVAITYDTCHGFDSGYDITKKEGVEALLNEIESLFGLERLKMIHLNDSKYPLGAAKDRHERIGSGFIGEEGFAVFFSFKEIQEVPWILETPGGNEEHAEDIKKVFEIIEKFGIEVD	soluble
MIKIKENRMSQSNVIIVHGAYGHPFENWFNWMKTELESLGIECFVPQLPTPDGQELKNWLHVFNSTVSPMITHDTILIGHSLGSAFLLRWLEQANQSVFSTILAGSFIGTVGIQKFDKINESFFENGFDWHSIINKSKQFFCYHGSNDPYISRSNFNFIANNLQARKIIISQGGHLNEAAGFSSFPQLLIQLKSLLGINYGKFI	not soluble
MIKNILILSSNNTGHGHKSITESLLEQFSHYPDVNVHVIDGFTLAGNFGLRIGKLYGSVTRNAKELWKLVWELSLKKPSLLNDFTEVAIKDNFLKLICNIKPDLILSVHPNFNGSVLNILEDYNIKVPFVTLLADIVSITPLWADPRADYIICPSKESKFKCLEFGVSESKLIETGFPVRQKFLKLEHHHHHH	not soluble
MIKPEYVVKLLSENMKKTRNPLGIKNEKTNNWWKKVEISKEGDWLFFTGMLYQLTPYIEATVKFLEKIENSRLQGLLTLSKAFPVPFSLLKAITPREAREEAETILQKVYFLLAKSVDVFYAPHLDFYSGILLYDFGHDEAFAEHAKFVCKRLESAGIEKIVTPDPHTTYALKVLYPKFTGVEFDVKSYIELLSDAKSLFNEEFVIHDPCYYGRYLELSDRVREVLNCAGVKYRGVRYSGRLTNCCGGPVEALSPKISREIARLRVEELGNSRIITFCPICLANLRRAGGNAVDFSMVVG	not soluble
MIKRPHVMQDSIQDCGVACIEMICKFYNINIDRRYIQEETGYGMIGISLKAMEKFFSKVDANPEIVNISKINRLNKENREMINNSLPAIVFLEEEEIINHFVVIWHIGKKRILVSDPTHTKKEWINNKHFEKRAISYLFVEKPKNI	not soluble
